Drawing on the Human Domainome abundance scans (Beltran et al. 2025), this text covers abundance fitness for 167 variants.

The labels stand for the following.
B1: Gamma-crystallin C, residues 4 to 79; numbered along this chain, P07315 (parent)
chain: ITFYEDRAFQGRSYETTTDCPNLQPYFSRCNSIRVESGCWMLYERPNYQGQQYLLRRGEYPDYQQWMGLSDSIRSC

± gives the uncertainty stated by the source.

The variants in the data set derive from B1. The data set is described as follows: abundance fitness (aPCA) (normalised: wild type 0, dead -1); higher = more abundant; growth selection in yeast, the domain comes from the species named. The following applies: Homo sapiens.
With I73F, the abundance fitness was -0.083 ± 0.12. For R29M the value was 0.096 ± 0.096. For R29A the value was 0.085 ± 0.091; for R29E, -0.021 ± 0.096. In the case of R29Q, the abundance fitness was -0.117 ± 0.14. The value for R29F was 0.103 ± 0.14. Take R29V: the abundance fitness is -0.009 ± 0.079. For the variant R74Q, the abundance fitness was -0.001 ± 0.1. For R74P the value was -0.389 ± 0.099; for R74K, -0.013 ± 0.12; for R74Y, 0.105 ± 0.14. With R74D, the abundance fitness is 0.104 ± 0.15. For the variant L42Q, the abundance fitness is -0.888 ± 0.19. The value for L42M was 0.045 ± 0.25.

Take T18G: the abundance fitness is -0.006 ± 0.033. Consider T18K, for which the abundance fitness was -0.065 ± 0.13.

Consider T18P, for which the abundance fitness is -0.847 ± 0.25. Consider T16Y, for which the abundance fitness turned out to be 0.202 ± 0.17.

As to T16C, the abundance fitness came out at 0.003 ± 0.13. In the case of T16Q, the abundance fitness came out at 0.027 ± 0.081.

As for T16F, the abundance fitness came out at 0.084 ± 0.1. The value for T16A was 0.074 ± 0.091; that for F3L was -0.036 ± 0.078; that for F3K was -0.991 ± 0.27.

In the case of F3M, the abundance fitness is -0.071 ± 0.085. With F3Q, the abundance fitness is -0.94 ± 0.23. The value for F3I was -0.368 ± 0.18; that for F3C was -0.586 ± 0.13; that for C39W was 0.031 ± 0.08. Take C39Y: the abundance fitness is -0.014 ± 0.092. On to C39V, for which the abundance fitness is 0.011 ± 0.072. The value for C39G was 0.08 ± 0.071; that for C39P was 0.092 ± 0.13; that for C39F was -0.036 ± 0.11.

With D71P, the abundance fitness is -0.135 ± 0.071.

In the case of D71K, the abundance fitness came out at 0.094 ± 0.11. D71R: the abundance fitness is -0.011 ± 0.066. The value for D71L was 0.021 ± 0.068. Regarding Q10P, the abundance fitness is -1.2 ± 0.42. In the case of Q10M, the abundance fitness was -0.228 ± 0.11. Regarding Q10L, the abundance fitness was -0.123 ± 0.067.

With Q10A, the abundance fitness was 0.065 ± 0.076.

Turning to N47P, the abundance fitness is -0.909 ± 0.4. The value for N47M was -0.044 ± 0.12. With N47I, the abundance fitness was -0.308 ± 0.28. The value for N47K was 0.025 ± 0.1; that for N47W was -0.086 ± 0.11; that for N47V was -0.181 ± 0.13. For I1T the value was -0.722 ± 0.3; for Y43A, -0.156 ± 0.079; for Y43V, -1.05 ± 0.19. For Y43G the value was -0.775 ± 0.083; for Y43M, -0.296 ± 0.18. With Y43F, the abundance fitness was -0.15 ± 0.15. As for R56T, the abundance fitness came to 0.071 ± 0.085. Turning to R56F, the abundance fitness stood at 0.195 ± 0.22. For R56A the value was -0.019 ± 0.088; for R56Y, 0.255 ± 0.24. For R56C the value was 0.086 ± 0.16; for R56M, 0.118 ± 0.095; for R56L, -0.062 ± 0.074.

As for R56D, the abundance fitness is -0.107 ± 0.15. For D6E the value was -0.038 ± 0.12. For D6V, the abundance fitness was -0.164 ± 0.14. Consider D6N, for which the abundance fitness was -0.035 ± 0.21. For D6K the value was 0.086 ± 0.23; for S75P, -0.66 ± 0.12; for S75E, -0.793 ± 0.27. Take S75V: the abundance fitness is -0.226 ± 0.053. Take S75T: the abundance fitness is -0.828 ± 0.17.

Turning to S75K, the abundance fitness was -0.59 ± 0.19.

In the case of R45H, the abundance fitness is -0.057 ± 0.22.

For R45P, the abundance fitness is -0.955 ± 0.23.

In the case of R45N, the abundance fitness was -0.169 ± 0.19. Turning to R45G, the abundance fitness was determined as 0.061 ± 0.067. For the variant C30F, the abundance fitness is -0.176 ± 0.12. In the case of C30S, the abundance fitness stood at 0.03 ± 0.071.

Regarding C30Q, the abundance fitness is -0.713 ± 0.14. Take C30R: the abundance fitness is -0.768 ± 0.14. For Q49A the value was -0.02 ± 0.085. For the variant Q49P, the abundance fitness is -0.805 ± 0.34. The value for Q49V was -0.098 ± 0.097; that for Q49E was 0.098 ± 0.15; that for Q49L was 0.022 ± 0.11. Consider Q49N, for which the abundance fitness is -0.053 ± 0.16. Consider Q64T, for which the abundance fitness is -0.004 ± 0.092. Consider Q64N, for which the abundance fitness amounted to 0.044 ± 0.082. Q64W: the abundance fitness was -0.021 ± 0.07.

As for Q64G, the abundance fitness is -0.045 ± 0.059. In the case of Q64M, the abundance fitness is -0.101 ± 0.081. With P61A, the abundance fitness is -0.004 ± 0.061. For P61D, the abundance fitness was -0.034 ± 0.2.

Consider P61Q, for which the abundance fitness was -0.051 ± 0.086.

As to P61M, the abundance fitness worked out at 0.002 ± 0.068. Regarding N31S, the abundance fitness was -0.019 ± 0.24. Turning to N31L, the abundance fitness was -0.294 ± 0.32. With Y26N, the abundance fitness worked out at 0.052 ± 0.38.

For Y26Q, the abundance fitness is -0.077 ± 0.19. For Y26T the value was -0.186 ± 0.097; for Y26I, 0.237 ± 0.19.

With Y26R, the abundance fitness is -0.031 ± 0.072. With Y26M, the abundance fitness was 0.078 ± 0.084. For the variant Y26P, the abundance fitness was -0.046 ± 0.16. The value for Y26G was 0.044 ± 0.084; that for Y26H was -0.082 ± 0.22. The value for Y53K was -0.026 ± 0.12; that for Y53G was -0.143 ± 0.079. For Y53I, the abundance fitness was determined as 0.131 ± 0.26. The value for Y53T was -0.146 ± 0.14; that for Y53A was -0.127 ± 0.15; that for Y53S was 0.022 ± 0.1. For Y53N the value was -0.062 ± 0.38; for Y53Q, -0.094 ± 0.096; for L23S, -0.39 ± 0.12.

On to L23E, for which the abundance fitness is -0.617 ± 0.16. Consider L23I, for which the abundance fitness is -0.059 ± 0.31. For G38R the value was -0.153 ± 0.055; for G38T, -0.191 ± 0.11. For G38L the value was -0.177 ± 0.091; for G38W, -0.427 ± 0.29; for G38S, 0 ± 0.092. In the case of G38D, the abundance fitness stood at 0.171 ± 0.11. For G38E the value was -0.009 ± 0.2.

As to W40S, the abundance fitness is -0.451 ± 0.13.

For the variant W40L, the abundance fitness is -0.243 ± 0.052.

Take W40M: the abundance fitness was -0.496 ± 0.15. In the case of Y48C, the abundance fitness was 0.083 ± 0.2. On to Y48K, for which the abundance fitness was -0.813 ± 0.34. Take Y48H: the abundance fitness was 0.042 ± 0.21.

In the case of Y48L, the abundance fitness was -0.182 ± 0.072. The value for Y48S was -0.324 ± 0.12; that for Y48V was -0.955 ± 0.27. The value for Y48M was 0.148 ± 0.068. For F27Y the value was -0.468 ± 0.23; for F27D, -1.02 ± 0.38; for F27T, 0.079 ± 0.11. Regarding F27M, the abundance fitness worked out at 0.064 ± 0.15. In the case of R7F, the abundance fitness is -0.082 ± 0.17. For R7T the value was -0.237 ± 0.19.

In the case of R7S, the abundance fitness was -0.117 ± 0.11. Take R7V: the abundance fitness is 0.045 ± 0.087. For the variant E44W, the abundance fitness was -0.372 ± 0.12.

Regarding E44Q, the abundance fitness was found to be 0.049 ± 0.13. The value for E44F was -0.414 ± 0.31. As for E15N, the abundance fitness was 0.075 ± 0.28. Take E15M: the abundance fitness was -0.013 ± 0.15. In the case of E15G, the abundance fitness was -0.072 ± 0.057. E15V: the abundance fitness is -0.073 ± 0.11. For E15Y the value was -0.057 ± 0.2. For the variant Q24I, the abundance fitness was -0.056 ± 0.21.

Take Q24L: the abundance fitness came to 0.116 ± 0.12.

Regarding G11C, the abundance fitness was -0.299 ± 0.12. For G11N the value was 0.162 ± 0.49. With G11W, the abundance fitness was -0.955 ± 0.19. As for G11S, the abundance fitness was -0.142 ± 0.079. The value for G11Y was -0.591 ± 0.19; that for P25I was -0.174 ± 0.17.

For P25H, the abundance fitness was -0.241 ± 0.37. Regarding P25D, the abundance fitness stood at 0.323 ± 0.22.

Turning to P25K, the abundance fitness came to 0.008 ± 0.11.

On to P25Y, for which the abundance fitness is -0.257 ± 0.26.

On to R57C, for which the abundance fitness is 0.142 ± 0.26. For R57K the value was 0.049 ± 0.15; for R57T, 0.244 ± 0.35. As for R57Y, the abundance fitness is -0.269 ± 0.18. In the case of R57G, the abundance fitness amounted to 0.051 ± 0.066. The value for R57H was 0.001 ± 0.41.
